Test results taken from patent publication US20240108766A1 (Bayer, published 2024).
Substitutions are numbered along the chain they refer to.

T1: human LRRC15 extracellular domain with C-terminal His tag (human, UniProt Q8TF66 22-538)
T1 construct: Recombinant, made in HEK293; the entry holds the extracellular domain and the His tag; SPR analyte; also called TPP-1545; hLRRC15 CT-His
T1 sequence: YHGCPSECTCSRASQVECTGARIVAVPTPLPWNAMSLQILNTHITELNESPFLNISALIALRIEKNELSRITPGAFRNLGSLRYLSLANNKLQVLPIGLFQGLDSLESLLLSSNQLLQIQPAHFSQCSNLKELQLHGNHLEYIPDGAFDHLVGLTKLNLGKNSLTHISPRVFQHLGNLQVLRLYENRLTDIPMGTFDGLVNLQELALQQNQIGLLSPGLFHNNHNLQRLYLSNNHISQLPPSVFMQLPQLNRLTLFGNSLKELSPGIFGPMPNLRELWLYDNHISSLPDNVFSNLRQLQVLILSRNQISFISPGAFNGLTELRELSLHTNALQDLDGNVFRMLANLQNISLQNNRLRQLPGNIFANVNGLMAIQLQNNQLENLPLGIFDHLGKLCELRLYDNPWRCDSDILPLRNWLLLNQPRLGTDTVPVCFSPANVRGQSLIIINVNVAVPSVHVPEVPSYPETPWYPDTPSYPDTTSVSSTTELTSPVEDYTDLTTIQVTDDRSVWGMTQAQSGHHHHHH

T2: cynomolgus (Macaca fascicularis) LRRC15 extracellular domain with C-terminal His tag (cynomolgus monkey (Macaca fascicularis), UniProt Q8TF66 22-538 (human entry))
T2 construct: Recombinant, made in HEK293; the entry holds the extracellular domain and the His tag; SPR analyte; also called TPP-9046
T2 chain: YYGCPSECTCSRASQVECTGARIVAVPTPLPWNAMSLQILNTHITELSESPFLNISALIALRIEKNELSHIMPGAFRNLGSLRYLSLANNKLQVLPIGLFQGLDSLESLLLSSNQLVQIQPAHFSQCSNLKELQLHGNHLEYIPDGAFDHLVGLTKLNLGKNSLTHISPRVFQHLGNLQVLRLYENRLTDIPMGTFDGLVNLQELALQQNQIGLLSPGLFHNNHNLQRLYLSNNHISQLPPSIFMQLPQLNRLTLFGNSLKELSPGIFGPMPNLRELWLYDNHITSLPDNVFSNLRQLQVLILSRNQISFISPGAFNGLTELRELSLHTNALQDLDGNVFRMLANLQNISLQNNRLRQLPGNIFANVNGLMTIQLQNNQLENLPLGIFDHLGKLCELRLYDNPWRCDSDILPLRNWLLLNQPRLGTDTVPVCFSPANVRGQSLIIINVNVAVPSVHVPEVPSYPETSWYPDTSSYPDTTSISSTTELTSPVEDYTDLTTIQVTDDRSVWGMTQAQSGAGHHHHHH

B1: TPP-1633 (antibody, human IgG1, kappa, V domains shown)
VH: EVQLLESGGGLVQPGGSLRLSCAASGFTFSGYMMQWVRQAPGKGLEWVSGIYPSGGYTNYADSVKGRFTISRDNSKNTLYLQMNSLRAEDTATYYCAREKASDLSGSYSEALDYWGQGTLVTVSS
VL: DIQMTQSPDSLSASVGDRVTITCRASQDVGSWLAWYQQKPGKAPKLLIFAASSLESGIPSRFSGSGSGTDFTLTISSLQPEDFATYYCQQANGFPLTFGGGTKVEIKR
notes: also called 060E-M016-G14-hIgG1
B2: TPP-14392 (antibody, human IgG1, kappa, V domains shown)
VH: B1 VH with Q35S, G55P, N59Y, T93V
VL: B1 VL with S53Y
notes: also called 13612-rec05-hIgG1Kappa
B3: TPP-17074 (antibody, human IgG1, kappa, V domains shown)
VH: B1 VH with Q35S, T58A, N59L, T93V, S102A, S105F
VL: B1 VL with S53Y
notes: also called 438H-M161-K22-hIgG1
B4: TPP-17073 (antibody, human IgG1, kappa, V domains shown)
VH: B1 VH with Q35S, G55A, N59L, T93V, S102A, S105F
VL: B1 VL with S53Y
notes: also called 438H-M113-N15-hIgG1
B5: TPP-17405 (antibody, human IgG1, kappa, V domains shown)
VH: EVQLVQSGAEVKKPGASVKVSCKASGYKFSSYWIEWVKQAPGQGLEWIGEILPGSDTTNYNEKFKDRATFTSDTSINTAYMELSRLRSDDTAVYYCARDRGNYRAWFQYWGQGTLVTVSS
VL: DIQMTQSPSSLSASVGDRVTITCRASQRISSYLNWYQQKPGGAPKFLIYYASSLQSGVPSRFSGSGSGTDYTLTISSLQPEDFATYYCDQGLELPWTFGGGTKVEIKR
notes: also called 438H-M345-F05-hIgG1Kappa
B6: TPP-17418 (antibody, human IgG1, kappa, V domains shown)
VH: B5 VH with T57W
VL: B5 VL with R28S, D89Q, L92F, E93S
notes: also called 438H-M308-H05_B-hIgG1Kappa
B7: TPP-17419 (antibody, human IgG1, kappa, V domains shown)
VH: B5 VH with T57W
VL: B5 VL with A25I, R28S, D89Q, E93R
notes: also called 438H-M307-H07-hIgG1Kappa

What follows are binders tested against T1, human LRRC15 extracellular domain with … (assay: SPR at 10-37°C (Example 3)).
Method: (§1) To assess if anti-LRRC-15 antibodies show a difference in binding at different temperatures, binding assays were conducted using surface plasmon resonance (SPR). Binding assays were performed on a Biacore T200 instrument at temperatures of 10° C., 20° C., 25° C. and 37° C. with assay buffer HBS EP+, 1 mg/ml BSA (bovine serum albumine), 300 mM NaCl, 0.05% NaN₃. Antibodies were captured via anti-human Fc IgGs covalently amine coupled to a CM5 sensor chip and human LRRC15 was used as an analyte in a concentration series from 1.56-200 nM in multi cycle kinetics mode. Pre-experiments were conducted to have an equal capture level at each temperature. Obtained sensorgrams were fitted to a 1:1 Langmuir binding model to derive kinetic data.

Temperature dependent loss in binding affinity | Binder
> 9 fold | B1
56.9 fold | B2
33.3 fold | B3

What follows are binders tested against T1, human LRRC15 extracellular domain with … (assay: calculated from SPR kd, 10°C).
Method: as §1

Complex Half Life | Binder
0.138 h | B1
3.21 h | B2
10.7 h | B3

These binders were tested against T1, human LRRC15 extracellular domain with … (assay: calculated from SPR kd, 20°C).
Method: as §1

Complex Half Life | Binder
1.48 h | B2
3.16 h | B3

The binders below were run against T1, human LRRC15 extracellular domain with … (assay: calculated from SPR kd, 25°C).
Method: as §1

Complex Half Life | Binder
0.00833 h | B1
0.567 h | B2
1.6 h | B3

What follows are binders tested against T1, human LRRC15 extracellular domain with … (assay: calculated from SPR kd, 37°C).
Method: as §1

Complex Half Life | Binder
2.3 min | B2

What follows are binders tested against T1, human LRRC15 extracellular domain with … (assay: SPR thermodynamics (van't Hoff/Eyring), 10-37°C).
Method: as §1, with “Thermodynamics help to explain why an interaction is happening and what the driving forces for the interaction are. To” for “To”, “the thermodynamic parameters for anti-LRRC15” for “if anti-LRRC-15”, “antibodies” for “antibodies show a difference in binding at different temperatures,”, “BSA,” for “BSA (bovine serum albumine),”, “NaN3.” for “NaN₃.”, “data. Thermodynamic parameters were obtained using the integrated thermodynamics wizard in the Biacore T200 software. Van′t Hoff and Eyring plots were calculated and plotted and thermodynamic parameters were derived.” for “data.”

-TΔS | ΔG^0 | ΔH^0 | Binder
15.3 kcal/mol | -11 kcal/mol | -26.3 kcal/mol | B2
9.56 kcal/mol | -12.9 kcal/mol | -22.7 kcal/mol | B3

Each binder was assayed against T1, human LRRC15 extracellular domain with … (assay: binding of the purified IgG, method not given).

Kd | Binder
~200 nM | B1

What follows are binders tested against T1, human LRRC15 extracellular domain with … (assay: SPR Biacore T200, antibody captured, LRRC15 analyte, 10°C).
Method: as §1

Kd | Binder
18 nM | B1
0.057 nM | B3

The binders below were run against T1, human LRRC15 extracellular domain with … (assay: SPR Biacore T200, antibody captured, LRRC15 analyte, 20°C).
Method: as §1

Kd | Binder
80 nM | B1
2.9 nM | B2
0.14 nM | B3

Each binder was assayed against T1, human LRRC15 extracellular domain with … (assay: SPR Biacore T200, antibody captured, LRRC15 analyte, 25°C).
Method: as §1

Kd | Binder
160 nM | B1
6.8 nM | B2
0.22 nM | B3

What follows are binders tested against T1, human LRRC15 extracellular domain with … (assay: SPR Biacore T200, antibody captured, LRRC15 analyte, 37°C).
Method: as §1

Kd | Binder
91 nM | B2
1.9 nM | B3

These binders were tested against T1, human LRRC15 extracellular domain with … (assay: SPR Biacore T200, 25°C, antibody captured, LRRC15 analyte).
Method: (§2) To assess the binding kinetics and affinity of anti-LRRC15 antibodies as well as their species cross-reactivity profile, binding assays were conducted using surface plasmon resonance (SPR). Binding assays were performed on a Biacore T200 instrument at 25° C. using assay buffer HBS EP+, 1 mg/ml BSA, 300 mM NaCl, 0.05% NaN3. Antibodies were captured via anti-human Fc IgGs covalently amine coupled to a CM5 sensor chip and human, mouse and cynomolgus LRRC15 were used as analytes in a concentration series from 1.56-200 nM in multi cycle kinetics mode. […] Obtained sensorgrams were fitted to a 1:1 Langmuir binding model to derive kinetic data.

Kd | Binder
150 nM | B1
0.21 nM | B4
5.9 nM | B2
0.19 nM | B3
0.86 nM | B5
1.1 nM | B6
3.4 nM | B7

Target: T2, cynomolgus (Macaca fascicularis) LRRC15 …
Assay: as above
Method: as §2

Kd | Binder
190 nM | B1
0.18 nM | B4
10 nM | B2
0.78 nM | B5
0.99 nM | B6
2.5 nM | B7

The binders below were run against T1, human LRRC15 extracellular domain with … (assay: SPR (Example 6), overview table, repeats Table 9; head prints [M^-1]).
Method: as §2

Kd | Binder
150 nM | B1
0.21 nM | B4
5.9 nM | B2
0.19 nM | B3
0.86 nM | B5
1.1 nM | B6
3.4 nM | B7

Target: T2, cynomolgus (Macaca fascicularis) LRRC15 …
Assay: as above
Method: as §2

Kd | Binder
190 nM | B1
0.18 nM | B4
10 nM | B2
0.78 nM | B5
0.99 nM | B6
2.5 nM | B7
